# Experimental data: patent US20080267971A1 (published 2008)
# T1: human Angiopoietin-1 (human, UniProt Q15389 20-498, limits assumed)
# T1 construct: Bought recombinant protein (R&D Systems 293-AN-025/CF) or supernatant of transfected 293F cells; also called Ang-1; recombinant Ang-1
# T1 sequence: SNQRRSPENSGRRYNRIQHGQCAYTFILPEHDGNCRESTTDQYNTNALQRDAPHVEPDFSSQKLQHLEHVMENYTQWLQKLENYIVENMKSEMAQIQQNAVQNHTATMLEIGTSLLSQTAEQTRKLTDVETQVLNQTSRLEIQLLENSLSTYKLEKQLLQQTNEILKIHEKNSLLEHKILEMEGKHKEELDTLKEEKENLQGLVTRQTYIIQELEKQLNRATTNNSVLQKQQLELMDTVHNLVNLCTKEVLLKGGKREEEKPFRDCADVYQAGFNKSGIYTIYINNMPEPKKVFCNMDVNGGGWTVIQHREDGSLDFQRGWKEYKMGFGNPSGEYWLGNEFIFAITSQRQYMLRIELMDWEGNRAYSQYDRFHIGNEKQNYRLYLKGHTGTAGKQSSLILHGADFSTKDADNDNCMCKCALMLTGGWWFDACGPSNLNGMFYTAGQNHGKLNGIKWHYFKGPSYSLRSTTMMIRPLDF
# B1: recombinant human Tie2/Fc fusion protein (Fc fusion, UniProt Q02763 23-745, looked up, not shown: a dimerising Fc or GST)
# chain: AMDLILINSLPLVSDAETSLTCIASGWRPHEPITIGRDFEALMNQHQDPLEVTQDVTREWAKKVVWKREKASKINGAYFCEGRVRGEAIRIRTMKMRQQASFLPATLTMTVDKGDNVNISFKKVLIKEEDAVIYKNGSFIHSVPRHEVPDILEVHLPHAQPQDAGVYSARYIGGNLFTSAFTRLIVRRCEAQKWGPECNHLCTACMNNGVCHEDTGECICPPGFMGRTCEKACELHTFGRTCKERCSGQEGCKSYVFCLPDPYGCSCATGWKGLQCNEACHPGFYGPDCKLRCSCNNGEMCDRFQGCLCSPGWQGLQCEREGIQRMTPKIVDLPDHIEVNSGKFNPICKASGWPLPTNEEMTLVKPDGTVLHPKDFNHTDHFSVAIFTIHRILPPDSGVWVCSVNTVAGMVEKPFNISVKVLPKPLNAPNVIDTGHNFAVINISSEPYFGDGPIKSKKLLYKPVNHYEAWQHIQVTNEIVTLNYLEPRTEYELCVQLVRRGEGGEGHPGPVRRFTTASIGLPPPRGLNLLPKSQTTLNLTWQPIFPSSEDDFYVEVERRSVQKSDQQNIKVPGNLTSVLLNNLHPREQYVVRARVNTKAQGEWSEDLTAWTLSDILPPQPENIKISNITHSSAVISWTILDGYSISSITIRYKVQGKNEDQHVDVKIKNATITQYQLKGLEPETAYQVDIFAENNIGSSNPAFSHELVTLPESQAPADLGGGK
# notes: Bought fusion protein; also called hTie2/Fc; soluble Tie2/Fc
# B2: human Angiopoietin-2 (ligand)
# chain: YNNFRKSMDSIGKKQYQVQHGSCSYTFLLPEMDNCRSSSSPYVSNAVQRDAPLEYDDSVQRLQVLENIMENNTQWLMKLENYIQDNMKKEMVEIQQNAVQNQTAVMIEIGTNLLNQTAEQTRKLTDVEAQVLNQTTRLELQLLEHSLSTNKLEKQILDQTSEINKLQDKNSFLEKKVLAMEDKHIIQLQSIKEEKDQLQVLVSKQNSIIEELEKKIVTATVNNSVLQKQQHDLMETVNNLLTMMSTSNSAKDPTVAKEEQISFRDCAEVFKSGHTTNGIYTLTFPNSTEEIKAYCDMEAGGGGWTIIQRREDGSVDFQRTWKEYKVGFGNPSGEYWLGNEFVSQLTNQQRYVLKIHLKDWEGNEAYSLYEHFYLSSEELNYRIHLKGLTGTAGKISSISQPGNDFSTKDGDNDKCICKCSQMLTGGWWFDACGPSNLNGMYYPQRQNTNKFNGIKWYYWKGSGYSLKATTMMIRPADF
# notes: Mostly bought recombinant protein (R&D Systems 623-AM/CF, 623-AN; biotinylated BT623) or supernatant of transfected 293F cells; also called Ang-2; rhAng-2
# How the values were obtained:
# human Angiopoietin-1 = molecular target: T1, human Angiopoietin-1; experiment: FACS: inhibition of Ang-1 binding to HEK293F/Tie2 cells
# Procedure: (§1) Cell suspension of 4 million cells/mL in FACS Buffer were prepared, and then aliquoted to a 96-well polypropylene plate with 50 ul per well. […] Cells were washed by centrifuging the plate at 1,200 rpm for 5 minutes, removing the supernatant by aspirating, and resuspending the cells with 200 ul per well of FACS Buffer. Washing procedures were repeated twice. The cells were then suspended with 100 ul of mouse Anti-6×-Histidine antibody diluted to 2 ug/ml in FACS Buffer, and incubated at room temperature for 30 minutes. After washing, the cells were suspended in 100 ul of PE-conjugated goat anti-mouse-IgG, which was diluted 1:100 in FACS Buffer, for incubation at room temperature for 30 minutes. The volume of the samples were brought to 300 ul with FACS Buffer, and measured with FACS Calibur.
# human Angiopoietin-2 = molecular target: B2; experiment: FACS: inhibition of Ang-2 binding to HEK293F/Tie2 cells
# Procedure: as §1
# [1] = molecular target: B1; experiment: FACS competition: binding of His-tagged recombinant human Ang-2 to Tie2 on HEK293F/Tie2 transfectants, soluble Tie2/Fc titrated, n = 3
# Procedure: as §1
Binder,EC50 (human Angiopoietin-1) [nM],EC50 (human Angiopoietin-2) [nM],binding result [1]
B1,18.7,25.7,
B2,,,binds
